From US20230364000A1, “COMPOSITIONS COMPRISING COMBINATIONS OF COLLAGEN OR ELASTIN POLYPEPTIDES WITH ACTIVE INGREDIENTS AND METHODS OF USING SAME” (Geltor, Inc., priority 2020, published 2023)

How the values were obtained:
[1] = tested on: facial skin; experiment: Expert clinical grader evaluation of facial skin (10 cm VAS; five-point ordinal scale for erythema), clinical study of Example 3; type: in vivo, human; details: 0.1% w/w topical formulation, Week 2
Experimental: (§1) A clinical study using human subjects to determine the effects of a topical skincare product containing truncated human type 21 collagen (SEQ ID NO: 16) is performed. The research is performed according to U.S. and International standards of Good Clinical Practice (FDA and ICH guidelines) and applicable government regulations.
(§2) A base formulation (control formulation) made of water, olive oil glycereth-8 esters, glycerin, coconut alkanes, hydroxyethyl acrylate/sodium acryloyldimethyl taurate copolymer, pentylene glycol, disodium EDTA, caprylyl glycol, chlorphenesin, phenoxyethanol is prepared. A formulation containing the truncated human type 21 collagen is prepared by adding sufficient collagen to prepare a topical formulation containing 0.1% w/w collagen.
Visual Analog Scales (VAS) are commonly used in clinical research to measure intensity or frequency of various symptoms, subjective characteristics or attitudes that cannot be directly measured. VAS are a reliable scale and more sensitive to small changes than simple ordinal scales. (A. Paul-Dauphin, F. Guillemin, J. Virion and S. Briancon, “Bias and precision in visual analog scales: A randomized controlled trial,” American Journal of Epidemiology, vol. 150, no. 10, pp. 1117-27, 1999). When responding to a VAS item, the expert grader specifies their level of agreement to a statement by indicating a position along a line (10 cm) between two end-points or anchor responses. Simple VAS is used to evaluate efficacy parameters in which the ends of a 10 cm horizontal line is defined as extreme limits orientated from the left (best) to the right (worst). Signs of photo-aging can be classified as follows: Mild=1-3.9 cm, Moderate=4-6.9 cm, Severe=7-10 cm.
Ordinal scales allow a number to be directly and objectively attached to the quality of a given attribute. When responding to an ordinal scale item, the expert grader specifies their level of agreement to a statement by choosing a set grade, or level.
The appearance of each subject's facial skin redness (erythema) is assessed by an expert grader using the following five-point ordinal scale for qualification at Baseline (Table 6). If qualified, each subject will undergo further erythema assessments at week 2, week 4, week 6 and week 8.
Fourteen female subjects are enrolled. The inclusion criteria are Caucasian female subjects with Fitzpatrick skin type III in good general health, and between ages of 35 and 65 years old, inclusive at enrollment. Inclusion criteria also include signs of aging on face as determined by an expert grader at a baseline of: a) Score of >2 cm<6 on 10 cm scale for lines/wrinkles; and b) Score of >1<3 on 5-point ordinal scale for facial redness (erythema). Table 7 discloses the demographics of the study participants.
The results of the expert clinical grader evaluation on lines/wrinkles, firmness (visual), elasticity (tactile), brightness, texture/softness (tactile), texture/smoothness (visual) and erythema after two weeks treatment are shown in Table 8. All of the tested characteristics were improved. The scores for brightness, texture/softness (tactile), texture/smoothness (visual) and erythema improved with statistical significance.

[2] = tested on: facial skin; experiment: Cutometer skin firmness and elasticity, clinical study of Example 3; type: in vivo, human; details: 0.1% w/w topical formulation; for Cutometer Elasticity (R5 Ur/Ue) Mean ± SD / Cutometer Firmness (R0 Uf) Mean ± SD / Cutometer Elasticity (R2 Ua/Uf) Mean ± SD: n 14; for Cutometer Elasticity (R5 Ur/Ue) Mean ± SD: baseline 0.28 ± 0.06; for Cutometer Firmness (R0 Uf) Mean ± SD: baseline 0.35 ± 0.06; for Cutometer Elasticity (R2 Ua/Uf) Mean ± SD: baseline 0.64 ± 0.09
Experimental: as §1, §2
The Cutometer MPA 580 (Courage+Khazaka, Germany) measures the viscoelastic properties of the skin by applying suction to the skin surface, drawing the skin into the aperture of the probe and determining the penetration depth using an optical measuring system.
The Cutometer outputs include many parameters of different portions of the measurement curve including of R0 (Uf, firmness), R2 (Ua/Uf, gross elasticity), R5 (Ur/Ue, net elasticity), R7 (Ur/Uf, elastic portion) and R9 (R3 [last max amp]-R0 [Uf], fatigue).
All subjects have Cutometer measurements taken on the left or right cheek (following a prepared randomization code) at baseline, immediately post-initial-application, and at weeks 2, 4, and 8. Skin elasticity is reported using the R5 (Ur/Ue) and R2 (Ua/Uf) parameter. As the skin becomes more elastic, this value will increase. Skin Firmness is reported using the R0 (Uf) parameter. As the skin becomes firmer, this value will decrease. Assessment location is recorded on a face map for each subject for consistency of measurements between visits.
Improvements in skin hydration, firmness, and elasticity were statistically significant.

[3] = tested on: human primary keratinocytes; experiment: IL-la ELISA in UVB-irradiated keratinocytes; type: cell-based; details: 40 mJ/cm^2 UVB, then 0.1% for 24 hours; compared to untreated UVB-irradiated keratinocytes; FIG. 3
Experimental: Human primary keratinocytes were irradiated with 40 mJ/cm^2 UVB light, and then treated with 0.1% of a polypeptide of SEQ ID NO: 16 for 24 hours. Levels of the pro-inflammatory cytokines IL-la were determined by ELISA.

[4] = tested on: facial skin; experiment: Facial wrinkles, clinical study of Example 5; type: in vivo, human; details: topical facial serum 0.1%, n=15, FIG. 9
Text: In a clinical study (n=15 subjects), subjects used a topical facial serum containing 0.1% of a polypeptide of SEQ ID NO: 16 for 8 weeks, after using a protein-free base facial serum for a 1-week washout period.

[5] = tested on: Human full-thickness skin equivalents (MatTek Epiderm FT co-culture tissue models); experiment: Fibronectin production in human full-thickness skin equivalents (ELISA); type: cell-based; details: polypeptide 0.1% w/w, FIG. 19
[6] = tested on: Human full-thickness skin equivalents (MatTek Epiderm FT co-culture tissue models); experiment: Type III collagen production in human full-thickness skin equivalents (pro-collagen type III N-peptide ELISA); type: cell-based; details: polypeptide 0.1% w/w, ascorbic acid 2% w/w, FIG. 21

B1: SEQ ID NO: 16: truncated human collagen type 21 alpha 1 without the DsbA secretion tag, recombinantly expressed in E. coli (protein)
chain: AGFPGLPGPAGEPGRHGKDGLMGSPGFKGEAGSPGAPGQDGTRGEPGIPGFPGNRGLMGQKGEIGPPGQQGKKGAPGMPGLMGSNGSPGQPGTPGSKGSKGEPGIQGMPGASGLKGEPGATGSPGEPGYMGLPGIQGKKGDKGNQGEKGIQGQKGENGRQGIPGQQGIQGHHGAKGERGEKGEPGVR
Brightness Mean Percent Improvement From BL mean [1]: 2.57% | Brightness Percent of Subjects Showing Improvement From BL [1]: 78.6% | Elasticity (Tactile) Mean Percent Improvement From BL mean [1]: 0.25% | Elasticity (Tactile) Percent of Subjects Showing Improvement From BL [1]: 35.7% | Erythema Mean Percent Improvement From BL mean [1]: 23.81% | Erythema Percent of Subjects Showing Improvement From BL [1]: 35.7% | Firmness (Visual) Mean Percent Improvement From BL mean [1]: 1.08% | Firmness (Visual) Percent of Subjects Showing Improvement From BL [1]: 64.3% | Lines/Wrinkles (Global) Mean Percent Improvement From BL mean [1]: 0.92% | Lines/Wrinkles (Global) Percent of Subjects Showing Improvement From BL [1]: 57.1% | Texture/Smoothness (Visual) Mean Percent Improvement From BL mean [1]: 3.63% | Texture/Smoothness (Visual) Percent of Subjects Showing Improvement From BL [1]: 64.3% | Texture/Softness (Tactile) Mean Percent Improvement From BL mean [1]: 6.43% | Texture/Softness (Tactile) Percent of Subjects Showing Improvement From BL [1]: 71.4% | Texture/Softness (Tactile) Mean ± SD ([1]; n 14, baseline 4.82 ± 0.82, P-value 0.008*): 4.51 ± 0.89 | Elasticity (Tactile) Mean ± SD ([1]; n 14, baseline 4.91 ± 0.53, P-value 0.547): 4.90 ± 0.52 | Firmness (Visual) Mean ± SD ([1]; n 14, baseline 5.07 ± 0.77, P-value 0.120): 5.01 ± 0.75 | Lines/Wrinkles (Global) Mean ± SD ([1]; n 14, baseline 5.22 ± 0.75, P-value 0.336): 5.17 ± 0.75 | Texture/Smoothness (Visual) Mean ± SD ([1]; n 14, baseline 5.46 ± 0.70, P-value 0.009*): 5.25 ± 0.68 | Brightness Mean ± SD ([1]; n 14, baseline 5.51 ± 0.54, P-value 0.010*): 5.37 ± 0.62 | Erythema Mean ± SD ([1]; five-point ordinal scale, n 14, baseline 1.60 ± 0.73, P-value 0.021*): 1.21 ± 0.80 | Cutometer Elasticity (R2 Ua/Uf) Mean Percent Improvement From BL mean ([2]; Immediate): 45.85% | Cutometer Elasticity (R5 Ur/Ue) Mean Percent Improvement From BL mean ([2]; Immediate): 44.57% | Cutometer Elasticity (R5 Ur/Ue) Percent of Subjects Showing Improvement From BL ([2]; Immediate): 92.9% | Cutometer Firmness (R0 Uf) Mean Percent Improvement From BL mean ([2]; Immediate): 30.38% | Cutometer Firmness (R0 Uf) Percent of Subjects Showing Improvement From BL ([2]; Immediate): 100% | Cutometer Elasticity (R5 Ur/Ue) Mean ± SD ([2]; Immediate, P-value <0.001*): 0.40 ± 0.09 | Cutometer Firmness (R0 Uf) Mean ± SD ([2]; Immediate, P-value <0.001*, value decreases as skin becomes firmer): 0.24 ± 0.05 | Cutometer Elasticity (R2 Ua/Uf) Mean ± SD ([2]; Immediate, P-value <0.001*): 0.93 ± 0.13 | Cutometer Elasticity (R2 Ua/Uf) Mean Percent Improvement From BL mean ([2]; Week 2): 26.93% | Cutometer Elasticity (R5 Ur/Ue) Mean Percent Improvement From BL mean ([2]; Week 2): 33.36% | Cutometer Elasticity (R5 Ur/Ue) Percent of Subjects Showing Improvement From BL ([2]; Week 2): 92.9% | Cutometer Firmness (R0 Uf) Mean Percent Improvement From BL mean ([2]; Week 2): 11.27% | Cutometer Firmness (R0 Uf) Percent of Subjects Showing Improvement From BL ([2]; Week 2): 78.6% | Cutometer Elasticity (R5 Ur/Ue) Mean ± SD ([2]; Week 2, P-value <0.001*): 0.37 ± 0.08 | Cutometer Firmness (R0 Uf) Mean ± SD ([2]; Week 2, P-value 0.028*): 0.31 ± 0.07 | Cutometer Elasticity (R2 Ua/Uf) Mean ± SD ([2]; Week 2, P-value <0.001*): 0.80 ± 0.09 | levels of IL-la [3]: lower levels | facial wrinkles ([4]; 4 weeks vs baseline): reduction | facial wrinkles ([4]; 8 weeks vs baseline): reduction | increase of fibronectin production relative to untreated control ([5]; day 4 supernatant, hyaluronic acid 0.1% w/w (low molecular weight, 15-40 kDa)): 67% | production of fibronectin as compared to untreated cells ([5]; each agent alone, day 4, retinol (10, unit not given), ascorbic acid 2% w/w, hyaluronic acid 0.1% w/w): increased production | increase of type III collagen production relative to untreated control ([6]; day 2 supernatant): 82% | production of type III collagen as compared to untreated cells ([6]; each agent alone, day 2, retinol (10, unit not given), hyaluronic acid 0.1% w/w): increased production
